# Measured values reported in the DeepSol protein solubility set.
# Assay: soluble on expression in E. coli; label from the status in PepcDB or PDB records
row,Sequence,soluble on expression in E. coli
1,MKSPAPSRPQKMALIPACIFLCFAALSVQAEETPVTPQPPDILLGPLFNDVQNAKLFPDQKTFADAVPNSDPLMILADYRMQQNQSGFDLRHFVNVNFTLPKEGEKYVPPEGQSLREHIDGLWPVLTRSTENTEKWDSLLPLPEPYVVPGGRFREVYYWDSYFTMLGLAESGHWDKVADMVANFAHEIDTYGHIPNGNRSYYLSRSQPPFFALMVELLAQHEGDAALKQYLPQMQKEYAYWMDGVENLQAGQQEKRVVKLQDGTLLNRYWDDRDTPRPESWVEDIATAKSNPNRPATEIYRDLRSAAASGWDFSSRWMDNPQQLNTLRTTSIVPVDLNSLMFKMEKILARASKAAGDNAMANQYETLANARQKGIEKYLWNDQQGWYADYDLKSHKVRNQLTAAALFPLYVNAAAKDRANKMATATKTHLLQPGGLNTTSVKSGQQWDAPNGWAPLQWVATEGLQNYGQKEVAMDISWHFLTNVQHTYDREKKLVEKYDVSTTGTGGGGGEYPLQDGFGWTNGVTLKMLDLICPKEQPCDNVPATRPTVKSATTQPSTKEAQPTPLEHHHHHH,soluble
2,GPGSMPIKAVVTDLDGTLLDPQHCISNYAAEVLKKIKEKGICFIVATGRPYAEVFNRIRHCHLAPDYIITSNGARIHDGAFNVVREHNLRPELVESLARVRTVKDPATGAELPKKFTTNIYRGAEWLTDKSIPEVSKAFHTDFQCTDLRERFYELQASELGDVHEIWFAGDHDELVLLDNALREKYPGDLCCTFSLPHLLDCVPAGVNKGNGVREAAEMLGLALDEVACFGDGMNDESMLQVTSTSFIMANAQQRLKDAVPHAQIIGSNADDGVAKKLEEMFFSA,soluble
3,MVYFYESKPTEYSTPYQIVMGKDKFENDLLIKWSYRELNYVWFHADKYSSGHVYLKLRPNEKTIDDIPQEVICDCLQLCKSESIQGNKMPQCTILITPWHNLRKNRYMNPGEVSFKSLRQCRKMECGARDNKILNRLAKTRVELFNNVEATLNEAKKTKNGDFFVNYIESNRSNLIEEEKLRKVAKKNQKKKNKQSKDEVTDDMQLEV,not soluble
4,MSLKNELEFAKKLIDFIYDSPSPFHSVDNIKNTLIENGFAEIKEENKWELNKNGKYFVKRNDSALIAFTVGSGFVAKKGFKIIGGHTDSPTFRIKPNPEMVSENSYIKLNTEVYGGPILSTWFDRPLSIAGRVTVRGKSALFPETKLLNIKRPILVIPNLAIHMNRDVNSGFKINPQVDTLPIIGIINDKFEKENYLMKIIASELGEDIENIIDFDLFLYEYDKGCIMGINNEFISSSRLDDMEMVHAGLNALVNAKCSEATNVLACFDNEEIGSATKQGADSQFLSDILERIVLSFGGDREDFFRALHNSFMISSDSAHAVHPNKGEKADPITRPHINEGPVIKISAAQKYTSDSNSIAVYEEVCRLSGVPYQKFVNRSDERGGSTIGPITATHTAIRTVDIGTPLLAMHSIRELCGTLDHMYVEKSFEEFYNEGHHHHHH,soluble
5,MTSITPSIQFFAGIFEELSNVSLRREVRTGKRIVMMKFNQLQAIEGFNSFTKQSLNSLLLTDEEGEISVTPSATRFIFGGDEGDELQGVECKFEVERDDHWERFMRFMNRYAEANDMEYGERLEHHHHHH,soluble
6,MSLHEKKKENVPEWQHFDAAIFNKAKKEHKLVLLHLGANWCHWCHVMEEQTYTDPFVLELLNKSYIACKEDHDERQDLTSLYAAYGWPATIVFDADGNELLKEAGFISSDRFIALLKKLVKNPTPMPTDSVQIEPAVASDSSTQQALNTLKKKFYSSLDIEGGGFNYAQKYIDFETFEYAFNHSENDSILTKWLYNSVVNSAGLNDNVWGGVFQYSTHSDWNHLHYEKLLSIQARYIKMYCWYYKRFNDADALSHAESAAKYVQRFLDDPKGGFYNSQDADVTPGEKATEYFKLNNADRIKKGIPAIDKNSYTSDNAEMIEACIILSAATGNNTYLEKAVRCFDFIKKNNKTNNAYAHGSNYTNSISLKDNIAIVKSALLLYRATQDAAYKSEALRIIQEVAGTFYSKKGYMISFIGNSPIKGSYNITENIEACRLLNYCSHVFNEPKYKILAQTIFGFLTNENLVKTMSTEPGILSAYEELNTEPLKAVLMIKNGTELKTDFLNSSLSFPAFYFDNTIYTSTTIPSDKYELFDSFDKNFIVACTASYCSSPMFSKDGFEKFIYRRAFSTEGHHHHHH,soluble
7,MSIIFAKLLLIILSYTHMKEKARNVYMVAGGVTKFAKASPEMDFRLRVKKAFDYAMNDAGLTLADIDGSVASYFSDHFQRQLMSGIMVQDYLGLVPKPSKRIEGGGATGGLAFQAGYEEIASGRMDTVAVYGFETMSHVNTWKGNEFIALASDTNFDYPIGGFYTGYYAMMAVRHMYEFGTTVEQLAKVSVKNHGNALHNPYAQSPMKLTVEDVRNAPMVSYPLTRLDVCAMSDGAAVAILASEDKAFEITDHPVLIKGIGTGTDSMRLADRPFGDVPLLPNEKPSDYKDLKYPGVHSFRAGRMAAKEAYEMAGITDPLNELDLIELHDAYTSSEIQTYEDLGLCKYGEGGQFIDEGKPELHGKIPVNPSGGLLAAGHPVGATGIMQAVFMFWQLQHTIKKHFHDDYLQVPNAKRGLIHSHAGTGTYVTVTIMEAAK,not soluble
8,LRNATQRMFEIDYSRDSFLKDGQPFRYISGSIHYSRVPRFYWKDRLLKMKMAGLNAIQTYVPWNFHEPWPGQYQFSEDHDVEYFLRLAHELGLLVILRPGPYICAEWEMGGLPAWLLEKESILLRSSDPDYLAAVDKWLGVLLPKMKPLLYQNGGPVITVQVENEYGSYFACDFDYLRFLQKRFRHHLGDDVVLFTTDGAHKTFLKCGALQGLYTTVDFGTGSNITDAFLSQRKCEPKGPLINSEFYTGWLDHWGQPHSTIKTEAVASSLYDILARGASVNLYMFIGGTNFAYWNGANSPYAAQPTSYDYDAPLSEAGDLTEKYFALRNIIQKFEKVPEGPIPPSTPKFAYGKVTLEKLKTVGAALDILCPSGPIKSLYPLTFIQVKQHYGFVLYRTTLPQDCSNPAPLSSPLNGVHDRAYVAVDGIPQGVLERNNVITLNITGKAGATLDLLVENMGRVNYGAYINDFKGLVSNLTLSSNILTDWTIFPLDTEDAVRSHLGGWGHRDSGHHDEAWAHNSSNYTLPAFYMGNFSIPSGIPDLPQDTFIQFPGWTKGQVWINGFNLGRYWPARGPQLTLFVPQHILMTSAPNTITVLELEWAPCSSDDPELCAVTFVDRPVIGSSVTYDHPSKPVEKRLMPPPPQKNKDSWLDHV,soluble
9,MGSDKIHHHHHHMLVVIPQVLNAEQVGAVRERLEHAGEAWVDGRVTAGYSGAPVKFNQQIDERSDVALECQRLILGMLERNPRFISAALPNIVYPPMFNRYSEGMTFGAHVDGSVRIHPHDGRKLRTDISATLFLSPHDSYDGGELQVQDTYGMHSVKLDAGDMVVYPATSLHQVTPITRGTRVASFFWIQSLIRDDTQRSLLFDMDNAIQRLNQTGADEEARRTLVGCYHNLLRQWSET,not soluble
10,MSLEMEKYLSVTTLTKYLKMKFDKDPYLERVYLTGQVSNFRKRPTHQYFSLKDDHAVIQATIWSGIYQKLGFDLEEGMKINVIGRVQVYEPSGSYSIIIEKVEPDGVGALAIQFEQLKKKLTEEGLFQERFKQALPQFSKRIGVVTSRSGAVIRDIITTVSRRFPGVDILLYPTKVQGEGAAEEIARNIARANQRDDLDLLIIGRGGGSIEDLWAFNEEIVVRAIFESRLPVISSVGHETDVTLADFVADRRAATPTAAAELATPVTKLDVLAHLQNQEKRMVTAVRNVLSKKQEALKKCSQSVIFRQPERLYDGYLQRLDQLQLRLKQSLRTRISDNKQLVQARTHQLVQLSPVTKIQRYQDRLGQLDKLLGSQMALVYDAKVAEAKRLSEALLMLDTSRIVARGYAIVKKEESVVDSVESLKKKDQVTLLMRDGQVELEVKDVKTKEIEGHHHHHH,not soluble
11,MSLSQPSFGLSNTATQGTLGQQSLVQPQNQQPQLAAQQLQSQQLSRYPQLIQEQILKCKESWDSNSYKTSLRSFVYNKVNETDAILYTKPTNVSQEEWDKAIENKPSSDLIPIQVFGFEGLNNRNQIQVENVAQARVILNQILDKTKQLQQSHSFETSARIMKVQARNAQIEKRILKLGTQLAILKNRRLPLTISEEKMWGQFQELLKSSNDPAGLGKTNELWARLAVLRERAKTISEQLDSKLVIIGEGHHHHHH,soluble
12,MDSLMRVFSHRSPPPSFGFACDVGAHPSSTAQNLPMTYGSVREMIDDFSIVFGVPKYRTSKPKKVTRKFSFTRLLQPIDNLVTCPACSNIHPSDTICDACYAKVHQLTSEIKKKMMQYNPYVGEKQDKEVYVKFRGEPDAPAAVVKGKRVLEIEKERPTWFKKLTLKE,not soluble
13,MSLTSEEERAEQAMAAISQIEPTRRLFVWTLTHGIVEYGSARAPAQHNTVSPQAAIEWVVRRGEPGIFIFKDLHPFIDLAPVKRWLRDAVAGFKGTDKVLVLMSPIQQIPTELEKEVVVVEFPLPGPGELNELLNVHLSQAPDKLRILSDAGREKMVKAALGLTKDEADKVYRKAEVVSGRLTEAEVDIVLSEKKQIIKRNGILEYLEFDDEGHHHHHH,not soluble
14,MSNVKHSKLLILGSGPAGYTAAVYAARANLKPVLVTGMQQGGQLTTTTEVENWPGDAEGLTGPALMERMKEHAERFDTEIVFDHINSVDLSSRPFRLTGDSQEYTCDALIISTGASAKYLGLESEEAFKGRGVSACATCDGFFYRNQKVAVVGGGNTAVEEALYLSNIASEVHLVHRRDSFRSEKILIDRLMDKVANGNIVLHTHRTLDEVLGDEMGVTGVRLKDTQSDMTENLDVMGVFIAIGHQPNSQIFEGQLEMKNGYIVVKSGLEGNATQTSIEGVFAAGDVMDHNYRQAITSAGTGCMAALDAERYLDSQGK,soluble
15,MTATWEKKEGNEGLLTVTVPAEKVNKALDQAFKKVVKQINVPGFRKGKVPRPIFEQRFGVEALYQDAIDILLPDAYGEAIDETDIKPVAQPEVSVTQIEKGKDFIFEATVTVEPEVKLGDYKGLEIEKQETELSDDELQEAIDHSLGHLAEMVVKEDGVVENGDTVNIDFSGSVDGEEFEGGQAEGYDLEIGSGSFIPGFEEQLEGMKVDEEKDVVVTFPEEYHAEELAGKEATFKTKVNEIKFKEVPELTDEIANELDAEANTVDEYKENLRKRLAEQKATDAENVEKEEAITKATDNTTIDIPEAMVNTELDRMVSEFAQRIQQQGLDLQTYFQISGQDETQLREQMKDDAEQRVKTNLTLTAIAEAEKIEATDEDIDKELEKMSKQFNISVEDIKNTLGNTDIIKNDVRIQKVIDLLRDNAKFVEGTKED,not soluble
16,MGSDKIHHHHHHMTGAQPVILGDMPSLSKLYVNAAATAARRRVLGTGTGISLPPCGHEVRGVVADVGNLTAFQHLVGETASDTLPAGFIHALAFPVSMSVMNRDDFPLPLLGMVHLKNKVEQHGTILFTEALDITSWAESLRGHRAGTQVDIVAEVRRSGDAKVLWKGTSTYLAKGVFLPGIDKPSVPAPPATFSAPDPTALWELGVDTGRAYAAVSGDFNPIHLSVLSAKALGLRRSIAHGMYLASRALADVGAVKGESFSWEVSFETPVFLPARVALDISSVDSPSGAWQHSDYAAWNPRSGRRHFSGSVTALQGQD,not soluble
17,MQQLREGAPADVFISADKKNMDKALADGTVGSSVKVATNSMVMVVPQGNPGKVTSVSDLAGKTVVLCDVQVPCGTISKKLQDANGVEIKAASLESSVSDVLGKVVSGEADAGWVYRTDAAAAGNKVEVIDIPHAQEFENSLYAAVSTHSTSPDEAQKLLDLIVSPKMAQVWKDHGFSPAQ,not soluble
